{
  "source": "patent US20140302075A1",
  "target": "human TLR4 receptor (expressed on HEK-Blue TLR4 reporter cells) (human) (UniProt O00206)",
  "sequence (O00206 24-839)": "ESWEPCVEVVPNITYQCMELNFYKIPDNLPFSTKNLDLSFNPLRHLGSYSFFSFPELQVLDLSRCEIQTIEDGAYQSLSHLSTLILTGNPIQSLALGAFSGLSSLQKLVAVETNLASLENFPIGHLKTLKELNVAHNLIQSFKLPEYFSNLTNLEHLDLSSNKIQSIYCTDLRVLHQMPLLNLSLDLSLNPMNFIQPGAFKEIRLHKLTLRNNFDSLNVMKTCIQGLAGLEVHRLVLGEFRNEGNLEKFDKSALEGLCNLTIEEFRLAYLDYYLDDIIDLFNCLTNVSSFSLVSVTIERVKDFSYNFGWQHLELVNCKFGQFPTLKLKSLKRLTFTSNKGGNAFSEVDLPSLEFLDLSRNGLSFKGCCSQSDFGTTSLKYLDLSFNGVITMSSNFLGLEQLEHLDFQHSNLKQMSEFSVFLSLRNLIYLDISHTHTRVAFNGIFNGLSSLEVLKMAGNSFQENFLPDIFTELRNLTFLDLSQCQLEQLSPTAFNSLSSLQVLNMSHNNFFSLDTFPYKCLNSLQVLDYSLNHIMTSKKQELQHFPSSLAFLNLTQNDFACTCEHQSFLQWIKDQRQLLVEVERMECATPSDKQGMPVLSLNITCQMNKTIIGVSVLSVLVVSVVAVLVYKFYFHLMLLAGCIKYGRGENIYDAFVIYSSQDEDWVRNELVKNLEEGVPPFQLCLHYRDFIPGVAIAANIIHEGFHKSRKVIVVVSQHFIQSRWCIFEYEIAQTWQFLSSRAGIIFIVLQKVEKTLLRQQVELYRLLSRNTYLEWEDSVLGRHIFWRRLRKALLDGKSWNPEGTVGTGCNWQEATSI",
  "assay": "cell-based or functional assay",
  "data": [
    {"substance": "AspRS1^N1 (C76S) (amino acids 1-154 of human aspartyl-tRNA synthetase with Cys76 to Ser, C-terminal V5His tag) (ligand)", "values": [
      {"measurement": "Fold increase in activity over AspRS1^N1 (TLR4 Activity; SEAP reporter, HEK-Blue TLR4 cells)", "result": 3.6, "unit": "fold"}
    ]}
  ]
}
